The results in this text go back to a protein production outcome set (Wang et al. 2014).

This series is described as follows: label from the status in PepcDB records.
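Further: failed if final PepcDB status was selected cloned or expressed and not failed if soluble or beyond.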

Consider “MFVSLLPLLLLTLVVGTLAGGEAFAERIVTAAGDVLTPAASTLLEDALTSGAGRGGATVLGVGVTLWSALKVFRGLDTAFSRVYGTDGPDSIVREIVDGLAALGGIGIALVGLGIIGAFGTVLGVQVALGGLALVPVLAVAFLPLYYLFPDQEMTLREAVPGAVFAGGGWTLLGTGFNVYAAQADSYQVYGVIGGVLLLVTWFYFAGQVLLVGAAVNAALADRQLQQVSRRRSGKAMSEDADETDTPPPAGTGPTGRDTDTLTDEELQELREEFESFREDIEGRTLHRDEVRSDLKQYVRRRMRRGHARQWGPYIVLLYGTIMTLGAFYYLKGLWAVLAMLVIWLSVLGLYAIMIAVGVTLTATGLPGRLVDRVRDWRQ”, for which the protein production result is reported as “failed”. For “MFVWHEYENAAEAAQSLADAVADALQGALDEKGGAVLAVSGGRSPIAFFNALSQKDLDWKNVGITLADERIVPTNHADSNTGLVREYLLKNKAAAAVWIPMVEDGKTETELHPDAVVDYALKHYKQPDVLILGMGNDGHTASIFPKAPQFQTAIDGSAGVALVHTTPVTAPHERISMTLDAIAHTGHVFLAIQGEEKKAVFDQAAQGENREYPISLVLNHQGVNCHVFYAE” the value was “not failed”; for “MFYEKIQTPAYILEEDKLRKNCELLASVGEKSGAKVLLALKGFAFSGAMKIVGEYLKGCTCSGLWEAKFAKEYMDKEIHTYSPAFKEDEIGEIASLSHHIVFNSLAQFHKFQAKTQKNSLGLRCNVEFSLAPKELYNPCGRYSRLGIRAKDFENVDLSTIEGLHFHALCEESAGALEAVLKVFEEKFGKWIGQMKWVNFGGGHHITKKGYDVEKLIALCKNFSDKYGVQVYLEPGEAVGWQTGNLVASVVDIIENEKQIAILDTSSEAHMPDTIIMPYTSEVLNARILATRENEKISDLKESEFSYLLTGNTCLAGDVMGEYAFDKKLKIGDKIVFLDQIHYTIVKNTTFNGIRLPNLMLLNAKNELQMIREFSYKDYSLRN”, “failed”; for “MFYITSKKVPFVTYSKNVFIPVTNICRNQCGYCGFRREPGQPGARLMKPEEVISVLENGVRAGCTEALFTFGERAEEVPGYGEMLEEIGYSSTLEYLVFLCETAIDIGILPHTNAGIMTRSELEALKPLNASMGLMLESTAVLAAHKDCPGKIPERRLETIREAGKLKIPYTTGLLIGIGESRDDRIESLEAIAALHREYGHIQEVIIQNFAPKPGTEMENFPEPAVEEMMDSVELAARILPGDVAVQVAPNLIDPKSLIAKGVTDLGGISPLTIDWINPEAEWPDVKNLQKKLGDIPLKERLPVYPPYVKKGWYSERIGSLIKRLEHHHHHH”, “failed”. In the case of “MGAKGKFWILTMVVAISGLSQGVLLPLIAIILEEKGVSAGINGFHATGIYLGVLLVSPFIEAPLHKYGYKPIILVGGGLVAIAIFAFPIWFNLYFWFILRLLIGIGDHMLHFSSQTWIGAMSDPSKRGRNMAIYGLFFSVGFAIGPQLVNLAKVNANLPFFLSGILVLIAWSLVWFIRNDFVGEKAVIRKISFWGSIKRFSGVFKMAWVAMIPPFLYGILETGLNATFPVVGLRDGLDTMMIAMIISSFSVGTIIFQVPIGIISDKFGRDKMLPLLTGAGAVVFVLTAFVKIPIFFVIFFFILGILLGSLYSLGLSYMTDLTPLELLPAGNILVGMFFSLGSIIGPSATGMMIGIFGNQIFYFVVAGILLLGCLLLALGGRKEAH”, the protein production result is reported as “not failed”. Consider “MGAKGKFWILTMVVAISGLSQGVLLPLIAIILEERGISAGINGFHATGIYLGVLLISPFIEAPLHKYGYKPIILVGGGLVAVSILAFPIWFNLYFWFILRLLIGVGDHMLHFSSQTWIGAMSDPSKRGRNMAIYGLFFSLGFAIGPQLVNLAEINANLPFFLSGILVLIAWGLVWFVRNDFVGEKAVIRKISFWGSLKRFSDVFKLAWVAMIPPFLYGILETGLNATFPVVGLRDGLDTMMIAMVISSFSVGTIIFQVPIGIVSDKFGRGKVLPLLTGAGAVVFVLTAFVKIPVLYVVFFFVLGILLGSLYSLGLSYMTDLTPLELLPAGNILVGMCFSLGSIIGPSATGMMIGIFGNQIFYFVVAGILVLGCLLLIFGARKDALEKKMKN”, for which the protein production result is reported as “failed”. Turning to “MGAMAEIQFIRGINEEVVPDVRLTRARDGSSGQAMFYFDNPKIVQEGNLEVTGMYMVDEEGEIVTRDVNAKFINGQPVAIEATYTMRSPQEWDRFIRFMDRYAASHGLGFQKSENS”, the protein production result is “failed”. For “MGCAGSTQSQADGSVKKIRKPKPWKHTQPITKAELMKLREEFWDTAPHYGGRKEIWDALRAAAEADISLAQAIVDSAGVIVQNTDLTVCYDERGAKYELPKYVLSEPTNLEEEN” the value was “failed”; for “MGCFASRPNDTGGNRRKPTSIGDVSVYVPGLRIPKPVEFSQSLGDQLPKTLVERLTALRTRIVVMANQEGPTITRTRRKTQHGGSTLADLHHALEDYIPVLLGLTKDGSHLQFKVQFNWVNQEDEEEETAMSNVWYEILSVLHLMAMLQMSQANLLLLPRGSSDGYHPKISEENRRASIDIFLKAAGYLDCAVKHVLPHFSTEQRRSLPIDLAEGALRALCLQALGQGVDIQLGMAIDSAKATLAVKRRLSCEMVKYWQQAQDNLMNLPLANGWGEKHMLFVKWKYVEAKAAAYYYHGLILDEGNTEKSHGMAVAALQAADECLKESKKASEAFNTSSPTSRTPSLFGTMKYLSEKIPKETSSKVRINRDLYSYEKIMETAPTLPDFALALKPDEYQLPSVDASWSEASLRTKNTSNHI”, “not failed”. Consider “MGCGLRKLEDPDESSPGKIFSTLKRPQVETKTEFAYEYALLDFTLQASTNPDVIKINSVLDIVAKVEDYYLKGYVVGAIHPVIQPVGQRKHLPASHLYRAVLSRLKLSPKHSAAGGQRRARLVMEECPLTCEAQANDAAKELMDKINAAAKRGMKFVGLVSQCYLPSMHCNGASHDGVAESGLHVRQDSQDNCKGWNEGALGGHLSESGVEEEPQHESGQHQTERNSSPSYANPKRGEAPDGKLYMVFNAFEEDAASWAYQEGVLSMKVTRKGAVISALDANWLELTTFYYKQGFSLIDSFVCWETPKVAKLEAFQLSVSDKLPKGKQKYSFQSLSGIPASGLA”, for which the protein production result is listed as “not failed”.

In the case of “MGCICFKSWRRSSSSPSITSTVIDDLENVREYDADDDGGHYPLIFREFSLEQLRIATDGFSAGNIVSEHNDSVPNIVYKGKLGDGRRIAVKRFQRLSWPDPFEFINEAQAVGRLRSEHMANLIGCCCDDNERLLVAEYMPNGTLAKHLFHWEKRPMKWEMRLKVALHTARALEYCNDKGIDLYHDLNPYRIMFDKTGIPKLSCFGLMKNSHEGKIYSTNLAFAPPEYLRLGTVIAESVTFSFGTLLLDLMSGRHIPPNHALDLFRGKNYLVLMDSALDGQFSDEDRTELIHVASRCFKTEPEERPSIKFLKATLSRLQKRAKLCPINVKRPMSPPSKNLPEKTKPATESLKLTPFGDACSRADLSSIHELLEKLGYEEDNGVGNEFSFQMWTGEMQENMDYKKHGDAAFLAKDFDTAIEFYTEFMTGAPTVSPTVLARRCLCYLMTEMFSEALSDAMQAQVASPEWPIPLYLQAACLFKLEMEAEAKEALRHGSALEAY”, the protein production result was “failed”.

Turning to “MGCLYSKGNVHFSIDDEIYDIKETRKQQQKEKEKEEEEKKLRPSSTPKVEHTWPSKLELSLQHLSQKTQNARKIQAWWRGTLVRRSLLRAALSAWIIQSWWRKILAKRQEKNRLIILHLMAQETRACVLIQSWVRMLKIRQNYCRLCYATRVIQASWRWYNCRTRGFFQGSYELVGNKLRLRLDIFLGSQVCRISDCISLPIKN”, the protein production entry is listed as “failed”.

Turning to “MGCRATQRESVGFADKIRYTERRFISVFGVPLLIQLICQAPQRAQELEQIAARWQLQASDDSPFALVLSEERLELRKLDEPKLGAIYVDWVEGAVAHRRKFGGGKGQSIAKAAGLNKGVTPVVLDATAGLGRDAFVLASLGCRVQMVERHPVVAALLEDGLQRAKQDDEIGAWVSERISLLHASSHDALQQLASDPNFTSPDVVYLDPMYPHPENKKKTALVKKEMRVFQSLVGADNDADALLEPALQLAQKRVVVKRPDYAPWLGNRKPSMAMETKKNRFDVYVIAAMSGE”, the protein production entry is listed as “failed”. On to “MGDEDLIELKFRLADGTDIGPSKYSQFMTVASLKEKIIAQWPKDKENAPKMINEVKLINGGKILENNKTLSEARSLITIGELPGIVTTMHVVLRPPLFEKKKEKLQNDPPRKSHCVCCIL”, for which the protein production result is given as “failed”. The same measure for “MGDIEGINIQSMASEIKKLRHKIETLEQQNSDLEIALTTAVEHGDAIESELFSTNDRLRGEVRERVIAERRLSKVLTVVSQQKDDLEVLVQTITEHSDEIDTQWLSRYSEVEALARLDPLTSIANRRMLDSALEQEWTRSLRSGSPLSVAMCDLDLFKAYNDRYGHNRGDQVLIAFAEILRGCSRRPPDLPARVGGEEFLILFPETDLAGARQVAEAIRLALWTLAIPHADSPHGRVTVSIGLACVFPRPEGDPADLIAQADFRLYEAKAHNRNTVRA”: “failed”. The same measure for “MGDKEESKKFSANLNGTEIAITYVYKGDKVLKQSSETKIQFASIGATTKEDAAKTLEPLSAKYKNIAGVEEKLTYTDTYAQENVTIDMEKVDFKALQGISGINVSAEDAKKGITMAQMELVMKAAGFKEVKLEHHHHHH”: “not failed”; for “MGETTVGHVAGEVVRALYGAGYMESTIGQYRKSIRALERYAGGPDAVYTRGLGAGFAASTFSERTGGFSRQRWFDYGRLARLCDSYLRSGSVDLGKWRRSRLAEPVVPGLAVVMERWEAYLAGSGLASATVGHYRRMAGLFLTWLESHGVVSLDGSDGSHVLGFLAGLRSRWSESSMRHAASDLRPLFRWLGRDDLADAIGLAGIRRTHAIAGTLPDDEHRRLLEACASRSVPSRDAAITLLSLTCGLRACDVIGLRIADVDWDSMSIGLVQRKTGNPLTVPMTGPLAARLASWLLDERPATDDDRVFVRYKAPHVALRGHSSVYEAISRVMRHAGLGRRGGSRLLRRNAATRMLEAATPLPTISAVLGHADPDSTRVYMATHRGGMLACVLPVPEGGSS”: “failed”; for “MGEYYHATVNGVVEYGAFVDLSEHVSGLIHESTYSGDPDLAVDDDVIVHLSAVRDNGDLSFEFVDPEEYRTEQRSHAYERTTADAVGLEHHHHHH”: “not failed”. The same measure for “MGFADFFKNFKINKLRTAPSKEEQPSHWVKCPKCYALMYHKEVFSKYSVCLKCHYHFRMKAAERIEFLCDVGSFEEFDKHLRPNDPLNFVDKESYKQRIKKYEKRTNRPSSVISGEAKINRMPLQIVVFDFSFMGGSLGSVEGEKIVRAINRAVAKREALLIVSASGGARMQESTYSLMQMAKTSAALNRLSEAKLPFISLLSDPTYGGVSASFAFLGDLIIAEPGAMIGFAGPRVIKQTIGADLPEGFQTAEFLLEHGLIDMIVHRKDLKKTLSDLIAMMTHKTSKIF”: “failed”; for “MGFIMEFAENLVLRLMENPEERDRKAREHIYEMHERCKKIKEMWALPIRPYGFWTFERHNAQLRWDPQISQVAGRRDPYDDLLEDNYTPPSSSSSSSD”: “failed”.

As for “MGFLDALMGNASEVDLGKLAAELSPILGDNEELQLAYKMVRDLFVFTSKRLILIDKQGVTGKKVSYHSIPYKAIVHFQVETAGTFDMDAELKLWISGQHEPLVKELKRGTDVVGIQKTIARYALG”, the protein production result is “not failed”. On to “MGFLEAYKSFWRNYVNFSGRAPRSAYWYVVLWNVIIFVILYALAFIFGISAIMEAAMGGTGMAGGGGAIVLVIILWLYLLAALLPTISLMVRRLHDSGKSGFFVLLSLIPFAGGIIMLIFMCLESDGPNQYGDGDIDSKFDF”, for which the protein production entry is “failed”. The same measure for “MGFLESFVSFIVYLASTCGYVGIFILNMLEYACLPFPSEIVLPAIGASVASGKYSMIYALPISVIGGVVGTLISYSVGMYAGKKVISFAKRKHKKSKSIFEKIDRLFSRYGKITVFLARLLPFTRTYISLFAGAEKVNKIMFVIFSALGITIMDSFYLLLGYFAYDNKSFIEKALRHYSIGLIIIIVIAIFSYYIYKNLKLKKLKKEN”: “failed”.
